Results published in patent US20140304847A1.

Biological target: Ku70 (endogenous full length protein of the human HEK 293 reporter cells) (UniProt P12956)
Assay: cell-based or functional assay

Question: How did the fold increase of homologous recombination in 293Rab-Rep#4 reporter cells against transfection without the Ku80 fragment turn out when “truncated Ku80 protein, residues 427-732 of mouse Ku80, expressed from pCAG-Ku80(427-732)-bpA (from UniProt P27641 427-732)” was run?
Answer: Its fold increase of homologous recombination in 293Rab-Rep#4 reporter cells against transfection without the Ku80 fragment is 2 fold.
